These results are taken from article PMC11305080 (2024).

The labels stand for the following.
B2: HIT01-K21Q-R218E (cleavage-resistant variant of HIT01) (designed binder)
chain 1: DYSEDQEVKAPQLDHPDPGTERVAELLRCTKSVWRIPEQYLVVLREGTRDSHVQRTVSTLRAQAARRGHAIHIMHTYSGVFHGFLIKMSSEVLPMALKLPHVAYIEEDSSIFAQ
chain 2: SIPWNLQRIIQTKHETGKYTPPNDGAQVTVFLLDTSVQTDHREIEGKVMVTDFNSMPKEDGTRFHESASKCESHGTHIAGVLSGRDAGVARGVSVNTVRVLNCQGRGTVSGALAGLEYIRASLQAQPVSPVIILLPFVGGFSRTLNTACREMVHSGAVLIAAAGNYQDDACMYSPASEPEVITVGASNAADRPLSSGTTGTNLGRCVDVFAPGEDIISASGDCSTCFVSMSGTSQSAAHAAGIAAVLLNAYPSASPAEVLQLLRYHAVQRVINPDSLPPEHYLTTPDMVAALPTSAATGEKLLCRSVWSKRSGVGSFDTAVARCRHGEEMFSCSSYSPNGVHAGERIEIRDGQKVCEAHHGIGGQGVYAVARCCTGSRVKCHASASLHVGIDAECPSQEFQLTGCSSHYIRSQDVAQPSWPLHSNRKACPAGEGGTSHAFCCHAPNLECHLIEHHQSEFTKQVEVSCEDSWTLTGCNAVSHGSVTHAAYTRGNTCVIQMFGGDKGAAAIAICCRYRPLDQQSNNNHEQNT

Holding throughout (assay): BLI
(BLI is a label-free optical method that tracks binding on a fibre tip over time.)

Test [1] has as its target human proprotein convertase subtilisin/kexin type 9 (PCSK9) (human, UniProt Q8NBP7 153-692).
Test [2] addresses B2.
The target of test [3] is J16.

B1: AMG145 (evolocumab) IgG (antibody, V domains shown)
VH: EVQLVQSGAEVKKPGASVKVSCKASGYTLTSYGISWVRQAPGQGLEWMGWVSFYNGNTNYAQKLQGRGTMTTDPSTSTAYMELRSLRSDDTAVYYCARGYGMDVWGQGTTVTVSS
VL: ESALTQPASVSGSPGQSITISCTGTSSDVGGYNSVSWYQQHPGKAPKLMIYEVSNRPSGVSNRFSGSKSGNTASLTISGLQAEDEADYYCNSYTSTSMVFGGGTKLTVL
As for B1, the Kd (in general, the free concentration of one partner at which half of the binding sites on the other are occupied at equilibrium, for simple one-to-one binding) in test [1] turned out to be 0.17 nM; in test [2], 0.19 nM. In test [3], B2 came in with a Kd of 0.62 nM.

B3: 1D05 Fab (Fab, V domains shown)
VH: QVQLVQSGAEVKKPGSSVKVSCKASGGTFNSHAISWVRQAPGQGLEWMGGINPILGIANYAQKFQGRVTITADESTSTAYMELSSLRSEDTAVYYCARHYEIQIGRYGMNVYYLMYRFASWGQGTLVTVSS
VL: DIQMTQSPSSLSASVGDRVTITCRASQGIRSALNWYQQKPGKAPKLLIYNGSTLQSGVPSRFSGSGSGTDFTLTISSLQPEDFAVYYCQQFDGDPTFGQGTKVEIK
Consider B3, for which the Kd in test [2] was determined as 1.83 nM.
